Data reported in the nanobody polyreactivity screen of Harvey et al. (2022).

Assay: yeast display, Sf9 membrane polyspecificity reagent, FACS + sequencing; frameworks hold sequencing errors
Summary of the method: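 A synthetic nanobody library was expressed on Saccharomyces cerevisiae BJ5465 by galactose induction for 36–48 hours. The library was stained for 1 hour at 4 °C with 10% biotinylated, detergent-solubilized Sf9 membrane reagent and enriched with streptavidin microbeads before FACS. Low and high (top ~1%) gates were set on anti-HA fluorescence for expression and streptavidin fluorescence for reagent binding, and each polyreactivity label reflects the gate of origin.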
With “QVQLVESGGGLVQAGGSLRLSCAASGITFRFYAMGWYRQAPGKERELVAAITSSGGSTYYADSVKGRFTISRDNAKNTVYLQMNSLKPEDTAVYYCAASYGAPYGYKRYYYWGQGTQVTVSS” the “polyreactivity (PSR sort gate)” value was “high polyreactivity”. For “QVQLVESGGGLVQAGGSLRLSCAASGITFRGNVMGWYRQAPGKERELVAAISGSSGRTYYADSVKGRFTISRDNAKNTVYLQMNSLKPEDTAVYYCAAYYGTKYDYWGQGTQVTVSS”, the “polyreactivity (PSR sort gate)” value was “high polyreactivity”. With “QVQLVESGGGLVQAGGSLRLSCAASGITFRGYAMGWYRQAPGKERELVAAITWSGGSTYYADSVKGRFTISRDIAKNTVYLQMKSLKPEDTAVYYCAARGRRSFEYWGQGTHVTVSS” the “polyreactivity (PSR sort gate)” value was “high polyreactivity”. In the case of “QVQLVESGGGLVQAGGSLRLSCAASGITFRHYDMGWYRQAPGKERELVAAITSRGGSTYYADSVKGRFTISRDNAKNTVYLQMNSLKPQDTAVYYCNKRLYYQRWPAAAREYWGQGTQVTVSS”, the “polyreactivity (PSR sort gate)” value is reported as “high polyreactivity”. With “QVQLVESGGGLVQAGGSLRLSCAASGITFRKYAMGWYRQAPGKERELVAGIRRGGSTYYADSVKGRFTISRDNAKNTVYLQMNSLKPEDTAVYYCATRARYKRIRYDYWGQGTQVTVSS” the “polyreactivity (PSR sort gate)” value was “high polyreactivity”. In the case of “QVQLVESGGGLVQAGGSLRLSCAASGITFRNYAMGWYRPAPGKERELVADITTGGSTYADSVKGRFTISRDNAKNTVYLQMISLKPEDTAVYYCAARYFSYYILRRIYPVREDYWGQGTQVTVSS”, the “polyreactivity (PSR sort gate)” value is reported as “low polyreactivity”. For “QVQLVESGGGLVQAGGSLRLSCAASGITFRPYTMGWYRQAPGKERELVATINWSGGSTYYADSVKGRFTISRDNAKNTVYLQMNSLKPEDTAVYYCAVTWYVRRWYGYWGQGTQVTVSS”, the “polyreactivity (PSR sort gate)” value was “high polyreactivity”. With “QVQLVESGGGLVQAGGSLRLSCAASGITFRRNAMGWYRQAPGKERELVAGITRGGTTKYADSVKGRFTISRDNAKNTVYLQMNSLKPEDTAVYYCNAVTRRHKYYYWGQGTQVTVSS” the “polyreactivity (PSR sort gate)” value was “high polyreactivity”. For “QVQLVESGGGLVQAGGSLRLSCAASGITFRSYAMGWYRQAPGKERELVATISWSGGITYYADSVKGRFTISRDNAKNTVYLQMNSLKPEDTAVYYCAKASQSWGRDDYYYWGQGTQVTVSS”, the “polyreactivity (PSR sort gate)” value was “low polyreactivity”. In the case of “QVQLVESGGGLVQAGGSLRLSCAASGITFRTNTMGWSRQAPGKERELVAAITWDGGSTYYADSVKGRFTISRDNAKNTVYLQMNSLKPEDTAVYYCAARLSYLYGLYPYYYWGQGTQVTVSS”, the “polyreactivity (PSR sort gate)” value is reported as “high polyreactivity”. For “QVQLVESGGGLVQAGGSLRLSCAASGITFRTYAMGWYRQAPGKERELVAAISSRGGSTYYADSVKGRFTISRDNAKNTVYLQMNSLKPEDTAVYYCNARDVRYYEYGYWGQGTQVTVSS”, the “polyreactivity (PSR sort gate)” value was “high polyreactivity”. With “QVQLVESGGGLVQAGGSLRLSCAASGITFRYNAMGWYRQAPGKERELVAAITFSGGSTYYADSVKGRFTISRDNAKNTVDLQMNSLKPEDTAVYYCAKLGSTSSRGNYDYWGQGTQVTVSS” the “polyreactivity (PSR sort gate)” value was “low polyreactivity”. For “QVQLVESGGGLVQAGGSLRLSCAASGITFRYYAMGRYRQAPGKERELVAAITRSGSTTYADSVKGRFTISRDNAKNTVYLQMNSLKPVDTAVYYCAVDYYYLTGGVDYWGQGTQVTVSS”, the “polyreactivity (PSR sort gate)” value was “low polyreactivity”. For “QVQLVESGGGLVQAGGSLRLSCAASGITFRYYAMGWSRQAPGKERELVADITRSGGTTYYADSVKGRFTISRDNAKNTVYLQMNSLKPEDSAVYYCAVDLNWWGWGLLQYDYWGQGTQVTVSS”, the “polyreactivity (PSR sort gate)” value was “high polyreactivity”. With “QVQLVESGGGLVQAGGSLRLSCAASGITFRYYAMGWYRPAPRKERELVAVISTSGGSTYYADSVKGRFTISRDNAKNTVYLQMNSLKPEDTAVYYCAARYSRSRRYRMDYWGQGTQVTVSS” the “polyreactivity (PSR sort gate)” value was “high polyreactivity”. With “QVQLVESGGGLVQAGGSLRLSCAASGITFRYYAMGWYRQAPGKERELVAAISSGGGTYYADSVKGRFTISRDNAKNTVYLQMNSLKPEDTAVYYCNVLRLYPSMDYWGQGTQVTVSS” the “polyreactivity (PSR sort gate)” value was “high polyreactivity”. For “QVQLVESGGGLVQAGGSLRLSCAASGITFSFYAMGWYRQAPGKERELVAGITRSGGDTYYADSVKGRFTISRDNAKNTVYLQMNSLKPEDTAVYYCAAAWFFYRRQYTFFAGRMDYWGQGTQVTVSS”, the “polyreactivity (PSR sort gate)” value was “high polyreactivity”. With “QVQLVESGGGLVQAGGSLRLSCAASGITFSGNAMGWYRQAPGKERELVAAISRNGGRTYYADSVKGRFTISRDNAKNTVYLQMNSLKPEDTAVYYCAKDAYGYSRVSAWYYTYDYWGQGTQVTVSS” the “polyreactivity (PSR sort gate)” value was “high polyreactivity”. With “QVQLVESGGGLVQAGGSLRLSCAASGITFSGNAMGWYRQAPGKERELVATISQSGGSTYYADSVKGRFTISRDNAKNTVYLQMNSLKPEDTAVYYCNVNLQGRYSDKYDYWGQGTQVTVSS” the “polyreactivity (PSR sort gate)” value was “high polyreactivity”. For “QVQLVESGGGLVQAGGSLRLSCAASGITFSGYAMGWYRQAPGKERDFVAGISYSGGSTYYADSVKGRFTISRDNAKNTVYLQMNSLKPEDTAVYYCAAYFGHYWRYYYWGQGTQVTVSS”, the “polyreactivity (PSR sort gate)” value was “high polyreactivity”. With “QVQLVESGGGLVQAGGSLRLSCAASGITFSKYAMGWYRQAPGKERELVAAITRSGGSTYYADSVKGRFTISRDNAKNTVYLQMNSLKPEDTAVYYCNARGYVTGGDGGYGYWGQGTQVTVSS” the “polyreactivity (PSR sort gate)” value was “high polyreactivity”. For “QVQLVESGGGLVQAGGSLRLSCAASGITFSLYAMGWYRQAPGKERELVAAITRSGGSTYYADSVKGRFTISRDNAKNTVYLQMNSLKPEDTAVYYCAAKRPGVRRYYYWGQGTQVTVSS”, the “polyreactivity (PSR sort gate)” value was “high polyreactivity”. For “QVQLVESGGGLVQAGGSLRLSCAASGITFSLYAMGWYRQAPGKERELVAAITRSGGSTYYADSVKGRFTISRDNAKNTVYLQMNSLKPEDTAVYYCAAQRPGVRRYYYWGQGTQVTVSS”, the “polyreactivity (PSR sort gate)” value was “high polyreactivity”. For “QVQLVESGGGLVQAGGSLRLSCAASGITFSNYAMGWYRQAPGKERELVAAITLSGGRTYYADSVKGRFTISRDNAKNTVYLQMNSLKPEDTAVYYCAAGRTRRPLGGTTKYYYWGQGTQVTVSS”, the “polyreactivity (PSR sort gate)” value was “high polyreactivity”. For “QVQLVESGGGLVQAGGSLRLSCAASGITFSPYTMGWYRQAPGKERELVAAINDGAITYYADSVKGRFTISRDNAKNTVYLQMNSLKPEDTAVFYCAAAAWGTDPFSTDYATYDYWGQVTQVTVSS”, the “polyreactivity (PSR sort gate)” value was “low polyreactivity”. For “QVQLVESGGGLVQAGGSLRLSCAASGITFSQYAMGWYTQAPGKERELVASISEGDGTNYADSVKGRFTISRDNAKNTVYLQMNSLKPEDTAVYYCAAPRPYYWSRRYYRAFDYWGQGTQVTVSS”, the “polyreactivity (PSR sort gate)” value was “high polyreactivity”. In the case of “QVQLVESGGGLVQAGGSLRLSCAASGITFSRYAMGWYRQAPGKERELVAAITWDGGRTYYADSVKGRFTISRDNAKNTVYLQMNSLKPEDTAVYYCAAGSAWWYYWGQGTQVTVSS”, the “polyreactivity (PSR sort gate)” value is reported as “high polyreactivity”. In the case of “QVQLVESGGGLVQAGGSLRLSCAASGITFSSYAMGWYRQAPGKEMELVAAISYGGGNTYYADSVKGRFTISRDNAKNTVYLQMNSLKPEDTSVYYCNTLYTSYSGLDYWGQGTQVTVSS”, the “polyreactivity (PSR sort gate)” value is reported as “high polyreactivity”. In the case of “QVQLVESGGGLVQAGGSLRLSCAASGITFSVNTMGWYRQAPGKERELVAAITSAGGTYYADSVKGRFTISRDNAKNTVYLQMNSQKPEDTAVYYCAAANFRSYLSQTGPRAYYYWGQGTQVTVSS”, the “polyreactivity (PSR sort gate)” value is reported as “low polyreactivity”. For “QVQLVESGGGLVQAGGSLRLSCAASGITFSYAMGWYRQAPGKERELVAGITTSGGSTYADSVKGRFTISRDNAKNTVYLQMNSLKPEDTAVYYCAADRSAVQFSAFLEYDYWGQGTQVTVSS”, the “polyreactivity (PSR sort gate)” value was “low polyreactivity”. For “QVQLVESGGGLVQAGGSLRLSCAASGITFSYNAMGWSRQAPGKERELVAAIRVGDGSTYYADSVKGRFTISRDNAKNTVYLQMNSLKPEDTAVYYCNARYLRLRYPYTDEYNYWGQGTQVTVSS”, the “polyreactivity (PSR sort gate)” value was “low polyreactivity”. In the case of “QVQLVESGGGLVQAGGSLRLSCAASGITFSYNAMGWYRQAPGKERELVAAISDIGGSTYYADSVKGRFTISRDNAKNTVYLQMNSLKPEDTAVYYCAADEYYQDESDYWGQGTQVTVSS”, the “polyreactivity (PSR sort gate)” value is reported as “low polyreactivity”. With “QVQLVESGGGLVQAGGSLRLSCAASGITFTENVMGWYRQAPGKERELVAGISRSGGITYYADSVKGRFTISRDNAKNTVYLQMNSLKPEDTAVYYCAAEEAYRSRRGGFDYWGQGTQVTVSS” the “polyreactivity (PSR sort gate)” value was “high polyreactivity”. With “QVQLVESGGGLVQAGGSLRLSCAASGITFTFNAMGWYRQAPGKERELVAAITWSGGSTFYADSVKGRFTITRDNAKNTVYLQMNSLKPEDTAVYYCARDTELYVRWLDYWGQGTQVTVSS” the “polyreactivity (PSR sort gate)” value was “low polyreactivity”. In the case of “QVQLVESGGGLVQAGGSLRLSCAASGITFTGYAMGWYRQAPGKERELVAAITSGGGRTYYADSVKGRFTISRDNAKNTVYLQMNSLKPEDTAVYYCATRYVTIVGYDYWGQGTQVTVSS”, the “polyreactivity (PSR sort gate)” value is reported as “high polyreactivity”. With “QVQLVESGGGLVQAGGSLRLSCAASGITFTIYAMGCNRQAPGKERELVAAITWTSDITHYADSVKGRVTISRDNAKNTDYLQMNSLKPEDTAVYYCGATTWDEYDYWGQGTQVTVSW” the “polyreactivity (PSR sort gate)” value was “high polyreactivity”. With “QVQLVESGGGLVQAGGSLRLSCAASGITFTRNVMGWYRQAPGKERELVAAISGSGGSTYYADSVKGRFTISRDNAKNTFYLQMNSLKPEDTAVYYCAARSRGGRRYDYWGQGTQVTVSS” the “polyreactivity (PSR sort gate)” value was “high polyreactivity”. With “QVQLVESGGGLVQAGGSLRLSCAASGITFTSYAMGWYRQAPGKERELVAAISSSGVRTYYADSVKGRFTISRDNAKNTVYLQMNSLKPEDTAVYYCATRRRVLYGYDYWGQGTQVTVSS” the “polyreactivity (PSR sort gate)” value was “high polyreactivity”. In the case of “QVQLVESGGGLVQAGGSLRLSCAASGITFTSYAMGWYRQATGKERELVAAITSSGSSTYYADSVKGRFTISRDNAKNTVYLQMNSLKPEDTAVYYCAAKHVGWYVQEEDYWGQGTQVTVSS”, the “polyreactivity (PSR sort gate)” value is reported as “low polyreactivity”. In the case of “QVQLVESGGGLVQAGGSLRLSCAASGITFTSYVMGWYRQAPGKERELVAAIRWSGGRTYYADSVKGRFTISRDNAKNTVYLQLNSLKPEDTAVYYCNRVTRSHVDYWGQGTQVTVSS”, the “polyreactivity (PSR sort gate)” value is reported as “high polyreactivity”. For “QVQLVESGGGLVQAGGSLRLSCAASGITFTVNAMGWYRQSPGKERELVAAISWSGGSTYYADSVKGRFTISRDNAKNTVYLQMNSLKPEDTAVYYCNAVLYRFAYNYWGQGTQVTVSS”, the “polyreactivity (PSR sort gate)” value was “low polyreactivity”. In the case of “QVQLVESGGGLVQAGGSLRLSCAASGITFTVYAMGWYRQAPGKERELVAAISQSGGSTYYADSVKGRFTISRDNAKNTVYLQMNSLNPEYTAVYDCNSDTVWGPYRSYIPFDYWGQGTQVNVSS”, the “polyreactivity (PSR sort gate)” value is reported as “low polyreactivity”. In the case of “QVQLVESGGGLVQAGGSLRLSCAASGITFTWYAMGWYRQAPGKERELVAAISGGGSTYYVDSVKGRFTISRDNAKNTVYLQMNSLKPEDTAVYYCAARYSWTRRTMYYWGQGTQVTVSS”, the “polyreactivity (PSR sort gate)” value is reported as “high polyreactivity”.
